12 sequences from the Immune Epitope Database (IEDB) can be followed below.

The target of the test is HLA-A*02:01. In words: IEDB peptide-MHC binding, purified MHC/direct/fluorescence; filed as Kd, often an IC50 or EC50 that approximates it; ≥ and ≤ were set here for values at or beyond the usual limits of such assays. The conditions noted are these: source organism: Human immunodeficiency virus 1.

On to SLYNTISVL, for which the Kd (commonly the free concentration of one partner at which half of the binding sites on the other are occupied at equilibrium, for simple one-to-one binding) is 61 nM.

As to SLYNTVSTL, the Kd came out at 181 nM. For the sequence SLYNTVVTL, the Kd stood at 20 nM.

For the sequence SLYNTITVL, the Kd was determined as 88 nM.

For the sequence SLYNTIAIL, the Kd was 500 nM.

On to SLFNTVATV, for which the Kd was 25 nM.

With SLFNAVVTL, the dissociation constant Kd amounted to 10 nM. Consider SLFNTVVTL, for which the equilibrium dissociation constant (Kd) amounted to 32 nM.

With SLYNLVAVL, the dissociation constant (Kd) was found to be 724 nM.

Take SLYNAVATL: the Kd stood at 45 nM. The same measure for SLYNAVVTL: 10 nM; for SVYNTVATL: 283 nM.
